Blank lines part the entries; values can stand above or below the binder they belong to.
How the values were obtained:
[1] = target: T1, hPD-1 (ECD-His, produced in house) (human, UniProt Q15116 25-170); experiment: binding ELISA
T1 construct: extracellular domain; also called coated hPD-1
Procedure: 60 nM of hPD-1 (ECD-His, produced in house) was coated on a Maxisorp plate (Nunc) overnight at 4° C. and blocked with 5% BSA in PBS. […] Absorbance signal after adding TMB was read with a plate reader (Spectramax ID3) at 450 nm. EC50 values were determined by blotting absorbance against concentration (Graphpad Prism, sigmoidal curve fit, 4 PL, X-axis is log).

[2] = target: T2, IL-2R CD122-CD132 on Jurkat-PD1+CD122+ cells (UniProt P14784 27-551; P31785 23-369); experiment: cell-based or functional assay
T2 sequence (looked up) 1: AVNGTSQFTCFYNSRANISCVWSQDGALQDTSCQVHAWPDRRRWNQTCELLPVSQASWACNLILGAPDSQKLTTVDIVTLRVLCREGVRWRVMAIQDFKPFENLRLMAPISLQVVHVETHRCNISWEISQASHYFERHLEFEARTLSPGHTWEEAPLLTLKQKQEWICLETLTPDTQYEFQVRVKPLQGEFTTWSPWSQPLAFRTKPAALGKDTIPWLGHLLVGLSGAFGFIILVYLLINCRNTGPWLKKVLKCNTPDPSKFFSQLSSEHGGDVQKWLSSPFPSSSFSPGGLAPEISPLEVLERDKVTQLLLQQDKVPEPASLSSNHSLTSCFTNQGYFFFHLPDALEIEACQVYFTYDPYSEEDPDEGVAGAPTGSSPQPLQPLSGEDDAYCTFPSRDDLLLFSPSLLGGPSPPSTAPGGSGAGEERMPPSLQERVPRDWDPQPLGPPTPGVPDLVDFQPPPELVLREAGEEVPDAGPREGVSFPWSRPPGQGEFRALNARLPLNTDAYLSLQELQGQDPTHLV
T2 sequence (looked up) 2: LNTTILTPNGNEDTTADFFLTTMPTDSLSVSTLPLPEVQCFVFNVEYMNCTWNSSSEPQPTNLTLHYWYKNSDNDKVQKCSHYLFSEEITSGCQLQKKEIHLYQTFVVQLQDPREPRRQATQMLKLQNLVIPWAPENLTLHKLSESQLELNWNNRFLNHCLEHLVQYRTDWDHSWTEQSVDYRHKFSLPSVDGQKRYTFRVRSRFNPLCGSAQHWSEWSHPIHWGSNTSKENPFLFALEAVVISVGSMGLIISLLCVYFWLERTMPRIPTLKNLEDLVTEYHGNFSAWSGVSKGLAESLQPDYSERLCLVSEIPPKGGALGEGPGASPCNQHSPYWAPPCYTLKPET

recombinant human IL-2 [3] = target: T3, recombinant human IL-2 (human, UniProt P60568 21-153); experiment: ELISA, coated IL-2
T3 construct: bought (BLI: Acro Biosystems IL2-H4113); also called rhIL-2; hIL-2
Procedure: (§1) Binding to IL-2 was first tested by ELISA using a serial dilution of antibodies on coated IL-2. Recombinant human IL-2 was coated on Maxisorp ELISA plates (Invitrogen, 44-2404-21) at 5 μg/ml, 4° C. overnight. […] The antibodies were detected with anti-human IgG-Peroxidase (Sigma, A0170). After addition and blockade of the chemiluminescent substrate, absorption was read (A₄₅₀-A₅₇₀ at plate reader, Spectramax 03). EC₅₀ values were obtained by plotting Absorbance vs. log(Concentration) and sigmoidal 4-PL fitting using GraphPad Prism (Table 1). […] Antibodies were immobilized on amine reactive (2nd Generation) sensors (ForteBio, 18-5092). Association (600s) and dissociation (900s) of a dilution series of recombinant IL-2 (Acro Biosystems, IL2-H4113) were measured on the antibody-coated biosensors on an Octet-System (Octet RED, ForteBio). KD values were obtained by fitting the kinetics data with the ForteBio Data Analysis Software (8.2).

recombinant human IL-2 [4] = target: T3, recombinant human IL-2; experiment: BLI, antibody immobilized
Procedure: as §1

[5] = target: T4, CD122/CD132 complex (His-tagged, Acro Biosystem ILG-H5283) (UniProt P14784 27-239; P31785 23-254, limits assumed); experiment: SPR, CD122/CD132 captured on NTA chip
T4 construct: bought; also called dimeric IL-2 receptor
T4 sequence (looked up) 1: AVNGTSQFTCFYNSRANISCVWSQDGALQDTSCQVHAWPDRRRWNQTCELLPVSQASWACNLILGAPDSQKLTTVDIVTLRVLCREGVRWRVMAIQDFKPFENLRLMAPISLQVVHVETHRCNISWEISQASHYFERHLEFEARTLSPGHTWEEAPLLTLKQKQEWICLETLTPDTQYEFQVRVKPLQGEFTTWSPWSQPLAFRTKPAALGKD
T4 sequence (looked up) 2: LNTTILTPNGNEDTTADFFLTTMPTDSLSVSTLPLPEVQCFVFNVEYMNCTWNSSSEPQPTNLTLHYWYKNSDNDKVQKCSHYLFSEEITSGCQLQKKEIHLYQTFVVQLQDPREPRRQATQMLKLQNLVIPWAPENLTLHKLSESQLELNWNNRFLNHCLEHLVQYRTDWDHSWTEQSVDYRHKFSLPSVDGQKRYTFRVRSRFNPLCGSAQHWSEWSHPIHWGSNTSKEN
Excerpt: Binding to the CD122/CD132 complex (His-tagged, Acro Biosystem, Cat #ILG-H5283) of one representative anti-IL-2 antibody/IL-2 fusion (QTY065) was additionally assessed by SPR (BIAcore 3000, v4.1.2; GE Healthcare) and compared to Proleukin. CD122/CD132 was captured on an NTA sensor chip (GE Healthcare). Proleukin or QTY065 Fab were used as analytes.

recombinant human IL-2 [6] = target: T3, recombinant human IL-2; experiment: BLI, antibody immobilized; BLI: antibody immobilized on amine reactive sensors, rhIL-2 in solution as a dilution series
Procedure: as §1

[7] = target: T5, recombinant hPD-1 (construct not stated) (human, UniProt Q15116 25-167, limits assumed); experiment: BLI, supernatants
T5 construct: also called huPD-1; Human PD1
Excerpt: In order to remove an N-glycosylation site present in the CDR-L1, mutations were inserted in the CDR-L1 of 21A08. The first asparagine ([…], N) in CDR-L1, was replaced by a serine (Ser, S), Glutamine (Gln, Q), or Alanine (Ala, A).

[8] = target: T6, cynomolgus PD-1 expressed on cells (cynomolgus monkey, UniProt B0LAJ3 25-288); experiment: flow cytometry, HEK293 cyPD1
T6 construct: also called CHO-S Cyno-PD-1; 293:cyPD1

[9] = target: T7, human PD-1 expressed on cells (human, UniProt Q15116 25-288); experiment: flow cytometry, HEK293 huPD1
T7 construct: whole, on cells; cell line named under assay; also called CHO-S hPD-1; Raji PD-1

[10] = target: T8, cynoPD-1 His (AcroBiosystems PD1-C5223) (cynomolgus monkey, UniProt B0LAJ3 25-170); experiment: BLI (legend: SPR), Ab on sensor
T8 construct: also called cPD-1; cynomolgus PD-1 His-tagged

hPD-1 His-tagged = target: T9, hPD-1 His-tagged (human, UniProt Q15116 25-167); experiment: BLI (legend: SPR), Ab on sensor
T9 construct: also called recombinant hPD-1 (AcroBio)
T9 sequence (Q15116 25-167 limits assumed): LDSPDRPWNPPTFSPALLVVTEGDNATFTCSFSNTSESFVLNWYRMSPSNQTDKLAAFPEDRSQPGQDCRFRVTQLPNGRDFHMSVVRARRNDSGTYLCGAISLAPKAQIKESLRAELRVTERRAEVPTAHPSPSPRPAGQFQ

T8 sequence (B0LAJ3 entry or part of it limits assumed): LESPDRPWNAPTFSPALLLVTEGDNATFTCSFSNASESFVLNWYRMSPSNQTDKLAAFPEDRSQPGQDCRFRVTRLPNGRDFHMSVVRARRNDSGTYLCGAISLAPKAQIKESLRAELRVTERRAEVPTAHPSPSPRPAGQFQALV
T3 sequence (P60568 21-153 limits assumed): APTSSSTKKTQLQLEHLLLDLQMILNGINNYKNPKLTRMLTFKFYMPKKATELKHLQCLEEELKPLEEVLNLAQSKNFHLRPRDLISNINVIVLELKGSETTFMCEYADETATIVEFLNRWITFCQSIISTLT
T5 sequence (Q15116 25-167 limits assumed): as the sequence (Q15116 25-167 limits assumed) above
T7 sequence (Q15116 25-288): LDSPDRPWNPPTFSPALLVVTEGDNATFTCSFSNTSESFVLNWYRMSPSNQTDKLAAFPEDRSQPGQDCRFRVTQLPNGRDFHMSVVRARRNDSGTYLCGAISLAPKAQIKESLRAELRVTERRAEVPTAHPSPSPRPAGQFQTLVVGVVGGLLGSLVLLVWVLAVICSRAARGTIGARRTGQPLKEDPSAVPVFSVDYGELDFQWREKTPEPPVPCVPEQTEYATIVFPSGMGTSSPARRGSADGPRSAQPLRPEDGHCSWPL
T6 sequence (B0LAJ3 entry or part of it limits assumed): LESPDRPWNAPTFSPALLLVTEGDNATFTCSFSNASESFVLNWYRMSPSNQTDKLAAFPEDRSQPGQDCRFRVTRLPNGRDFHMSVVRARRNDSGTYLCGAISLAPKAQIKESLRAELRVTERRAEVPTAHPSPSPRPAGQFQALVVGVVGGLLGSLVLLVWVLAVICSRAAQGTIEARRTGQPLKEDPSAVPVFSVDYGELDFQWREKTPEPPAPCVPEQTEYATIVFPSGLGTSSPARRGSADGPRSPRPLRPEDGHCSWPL
T1 sequence (Q15116 25-170): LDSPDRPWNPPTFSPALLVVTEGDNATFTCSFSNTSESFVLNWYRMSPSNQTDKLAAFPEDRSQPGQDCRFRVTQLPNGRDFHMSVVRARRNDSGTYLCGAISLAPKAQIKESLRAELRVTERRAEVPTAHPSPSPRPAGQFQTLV

binding result [1]: no binding
EC50 value for pSTAT5 induction, Jurkat-PD-1+CD122+ cells [2]: 5.37 nM
B1: PXU588 (bispecific antibody, human IgG1, kappa, L234A L235A)
heavy 1: EVQLLESGGGLVQPGGSLRLSCAASGFTFSINAMTWVRQAPGKGLEWVSTISGSGFSTYYADSLKGRFTISRDNSKNTLYLQMNSLRAEDTAVYYCAKEVYGDYWGQGTLVTVSSASVAAPSVFIFPPSDEQLKSGTASVVCLLNNFYPREAKVQWKVDNALQSGNSQESVTEQDSKDSTYSLSSTLTLSKADYEKHKVYACEVTHQGLSSPVTKSFNRGECDKTHTCPPCPAPEAAGGPSVFLFPPKPKDTLMISRTPEVTCVVVDVSHEDPEVKFNWYVDGVEVHNAKTKPREEQYNSTYRVVSVLTVLHQDWLNGKEYKCKVSNKALAAPIEKTISKAKGQPREPQVYTLPPSREEMTKNQVSLTCLVKGFYPSDIAVEWESNGQPENNYKTTPPVLDSDGSFFLTSKLTVDKSRWQQGNVFSCSVMHEALHNHYTQKSLSLSPGK
light 1: RSVLTQPPSASGTPGQRVSISCSGASSNIGSSSVFWYQQLPGTAPKLLIYSNNQRPSGVPDRFSGSKSGTSASLAISGLRSEDEADYYCAAWDDSLSIWVFGGGTKLTVLSSASTKGPSVFPLAPSSKSTSGGTAALGCLVKDYFPEPVTVSWNSGALTSGVHTFPAVLQSSGLYSLSSVVTVPSSSLGTQTYICNVNHKPSNTKVDKRVEPKSC
heavy 2: EVQLVQSGAEVKKPGESLKISCKGSGYAFTNYLIEWVRQMPGKGLEWMGVINPGSGGTNYNEKFKGQVTISADKSISTAYLQWSSLKASDTAMYYCARWRGEGYYAYFDVWGQGTTVTVSSASTKGPSVFPLAPSSKSTSGGTAALGCLVKDYFPEPVTVSWNSGALTSGVHTFPAVLQSSGLYSLSSVVTVPSSSLGTQTYICNVNHKPSNTKVDKRVEPKSCDKTHTCPPCPAPEAAGGPSVFLFPPKPKDTLMISRTPEVTCVVVDVSHEDPEVKFNWYVDGVEVHNAKTKPREEQYNSTYRVVSVLTVLHQDWLNGKEYKCKVSNKALAAPIEKTISKAKGQPREPQVYTLPPSREEMTKNQVSLYCLVKGFYPSDIAVEWESNGQPENNYKTTPPVLDSDGSFFLYSKLTVDKSRWQQGNVFSCSVMHEALHNHYTQKSLSLSPGK
light 2: not shown
notes: also called IgG CrossMab 21A08A p2 x QTY065

EC50 (recombinant human IL-2 [3]): 0.37 nM
Kd (recombinant human IL-2 [4]): 2.1 nM
B2: Antibody A (antibody, human IgG1, kappa, N297A, V domains shown)
VH: EVQLVQSGAEVKKPGESLKISCKGSGYAFTNYLIEWVRQMPGKGLEWMGVINPGSGGTNYNEKFKGQVTISADKSISTAYLQWSSLKASDTAMYYCARWRGEGYYAYFDVWGQGTTVTVSS
VL: AIRLTQSPSSFSASTGDRVTITCKASQSVDYQGDSYMNWYQQKPGKAPKLLIYAASNLESGVPSRFSGSGSGTDFTLTISSLQSEDFATYYCQQSNEDPYTFGGGTKVEIKR
notes: humanized from antibody NARA1

Kd [5]: 0.32 nM
B3: QTY065 Fab (Fab)
heavy: B2 VH
light: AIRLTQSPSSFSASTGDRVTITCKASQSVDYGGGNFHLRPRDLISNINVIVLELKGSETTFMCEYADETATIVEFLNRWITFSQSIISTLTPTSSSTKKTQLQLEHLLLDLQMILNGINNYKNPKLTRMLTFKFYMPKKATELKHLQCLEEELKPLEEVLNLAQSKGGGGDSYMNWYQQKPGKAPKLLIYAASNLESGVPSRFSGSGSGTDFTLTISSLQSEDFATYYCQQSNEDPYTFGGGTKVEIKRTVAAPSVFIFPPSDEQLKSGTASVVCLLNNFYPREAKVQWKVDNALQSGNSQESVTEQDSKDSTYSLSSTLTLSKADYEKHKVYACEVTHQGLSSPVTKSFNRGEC
notes: also called Fab fragment of QTY065; not shown: CH1

Kd (recombinant human IL-2 [6]): 270 nM
B4: Antibody B (antibody, human IgG1, kappa, V domains shown)
VH: QVQLVESGGGVVQPGRSLRLSCAASGYTFSSYLIEWVRQAPGKGLEWVAVINPGSGGTNYADSVKGRFTISADKSKNTAYLQMNSLRAEDTAVYYCARWRGDGYYAYFDVWGQGTTVTVSS
VL: EIVLTQSPATLSVSPGERATLSCRASQSVSYDGDSYMNWYQQKPGQAPRLLIYAASNLASGIPARFSGSGSGTEFTLTISSLQSEDAAVYYCQQSNEDPYTFGGGTKVEIKR

Kd [7]: 2.17 nM
koff [7]: 0.00014 s⁻¹
EC50 [8]: 0.195 nM
EC50 [9]: 0.243 nM
Kd [10]: 1.24 nM
koff [10]: 8.25e-05 s⁻¹
kon [10]: 66700 M⁻¹ s⁻¹
Kd (hPD-1 His-tagged): 0.00927 nM
koff (hPD-1 His-tagged): 6.39e-07 s⁻¹
kon (hPD-1 His-tagged): 69000 M⁻¹ s⁻¹
B5: 21A08 (antibody, V domains shown)
VH: EVQLLESGGGLVQPGGSLRLSCAASGFTFSINAMTWVRQAPGKGLEWVSTISGSGFSTYYADSLKGRFTISRDNSKNTLYLQMNSLRAEDTAVYYCAKEVYGDYWGQGTLVTVSS
VL: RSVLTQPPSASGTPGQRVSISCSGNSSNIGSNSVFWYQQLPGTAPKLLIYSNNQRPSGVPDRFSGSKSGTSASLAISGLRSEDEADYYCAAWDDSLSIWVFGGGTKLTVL
notes: used with CH1,2,3 and CL(lambda); also called clone 21A08
